Reference: patent US8106168B2, “Metalloproteinase binding proteins” (Dyax Corp., priority 2005, dated 2012)

Assays:
MMP-14 [1] = target: T1, MMP-14 (Homo sapiens, UniProt P50281); test: Selection and phage ELISA screening of anti-MMP-14 Fabs; format: binding; conditions: Fab from FAB310 phage display library
In short: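 The FAB310 phage library was panned on biotinylated MMP-14, alone or complexed with bead-bound TIMP-2, at 500 nM and then 100 nM over three rounds. Phage was eluted with 2.5 μM TIMP-2, then 100 mM TEA. For ELISA, 95 clones per round were screened against 1 μg/ml biotinylated MMP-14 captured on streptavidin in TRIS/5 mM CaCl2, pH 7.5.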

MMP-24 [2] = target: T2, MMP-24 (Homo sapiens, UniProt Q9Y5R2); test: Cross-reactivity of anti-MMP-14 IgGs, enzymatic activity: MMP-24; format: biochemical; conditions: 1 μM anti-MMP-14 IgG
Experimental: (§1) The cross-reactivity of exemplary anti-MMP-14 IgGs and Fabs with other human MMPs and TACE (TNF-alpha converting enzyme) was examined. MMP and TACE enzymatic activity was monitored in the absence and presence of 1 μM anti-MMP-14 IgG antibody. Inhibition (Y) of activity ranged from approximately 50-80% of the reaction rate observed in the absence of antibody. “X” indicates no inhibition was observed. Cross-reactivity was not determined for MMP-17 because protein activity could not be detected.
(§2) For the studies summarized in Table 12, six anti-MMP-14 IgGs were selected for cross-reactivity testings: M0043-G02, M0040-A06, M0037-D01, M037-C09, M0038-F01, M0033-H07.

MMP-16 [3] = target: T3, MMP-16 (Homo sapiens, UniProt P51512); test: Cross-reactivity of Fabs and IgGs with MMP-16 (Example 8); format: biochemical; parameters: key to MMP-16 (cross-reactivity, class symbol): X: Does not inhibit MMP-16 at [I] = 100 nM level; conditions: 5 nM MMP16, 30 minutes at 30° C., 10 μM substrate
Experimental: For the studies summarized in Tables 13 and 14, 100 nM anti-MMP-14 Fab/IgG were incubated with 5 nM MMP16 for 30 minutes at 30° C., 10 μM of substrate was added, and the MMP-16 activity was measured.

MMP-24 [4] = target: T2, MMP-24; test: Cross-reactivity of Fabs with MMP-24 (Example 9); format: biochemical; parameters: key to MMP-24 (cross-reactivity, class symbol): X: Do not inhibit MMP-16 or MMP-24 at [I] = 100 nM level; Y: partially inhibit at [I] = 100 nM level; conditions: Fab, 100 nM final inhibitor concentration; 5 nM MMP-24
Experimental: (§3) For the studies summarized in Table 15, 1 μM of anti-MMP-14 Fab/IgG (100 nM final inhibitor concentration) were incubated with 5 nM of MMP-16 or 5 nM of MMP-24 for 30 minutes at 30° C., 10 μM of substrate was added, and the MMP-16 activity was measured.

MMP-14 [5] = target: T1, MMP-14; test: IC50 for MMP-14 inhibition by Fabs and IgGs; format: biochemical; conditions: Fab
Experimental: MMP-14 binding proteins can be characterized in assays that measure their modulatory activity toward MMP-14 or fragments thereof in vitro or in vivo. For example, MMP-14 can be combined with a substrate such as Mca-Pro-Leu-Ala-Cys(Mob)-Trp-Ala-Arg-Dap(Dnp)-NH2 under assay conditions permitting cleavage by MMP-14. The assay is performed in the absence of the MMP-14 binding protein, and in the presence of increasing concentrations of the MMP-14 binding protein. The concentration of binding protein at which 50% of the MMP-14 activity (e.g., binding to the substrate) is inhibited is the IC50 value (Inhibitory Concentration 50%) or EC50 (Effective Concentration 50%) value for that binding protein.

MMP-16 [6] = target: T3, MMP-16; test: Cross-reactivity of Fabs with MMP-16 (Example 9); format: biochemical; parameters: key: X: Do not inhibit MMP-16 or MMP-24 at [I] = 100 nM level; Y: partially inhibit at [I] = 100 nM level; conditions: Fab, 100 nM final inhibitor concentration, 5 nM MMP-16
Experimental: as §3

MMP-16 [7] = target: T3, MMP-16; test: Cross-reactivity of anti-MMP-14 IgGs, enzymatic activity: MMP-16; format: biochemical; conditions: 1 μM anti-MMP-14 IgG
Experimental: as §1, §2

[8] = system: activation of pro-MMP-2 by MMP-14 in PMA-activated HT-1080 cells; test: Gelatin zymogram, pro-MMP-2 activation in HT-1080 cells; format: cell-based, human; conditions: gelatin zymography of conditioned media after 3 days; antibodies 10 μg/ml, GM6001 10 μM
Experimental: The ability of anti-MMP-14 IgGs to inhibit the activation of pro-MMP-2 by MMP-14 was examined by gelatin zymogram experiments performed with PMA-activated HT-1080 cells. M0033-H07 and M0038-F01 were tested for their ability to inhibit MMP-14 in this assay. HT1080 cells (well-known to express MMP-14 and MMP-2) were seeded at 5×10^5 cells/well at Day 0. […] HT-1080 cells cultured in the presence of 20 ng/ml of PMA were used as a positive control.
After 3 days of incubation, conditioned media were collected and gelatinolytic activities were analyzed by gelatin zymography as described previously (Maquoi et al, J Biol Chem 2000; 275:11368-78). When HT-1080 cells are activated with a phorbol ester, pro-MMP-2 is activated into MMP-2 (lane 1).

[9] = system: Tumor Cells Expressing MMP-14 (HT-1080, LNCaP, MDA-MB-231, PC3); test: Binding of IgGs to tumor cells, immunocytochemistry and flow cytometry; format: cell-based, human; conditions: ICC versus flow cytometry
Experimental: The ability of twelve biotinylated-MMP-14 binding IgGs to bind to tumor cells expressing MMP-14 was evaluated using both immunocytochemistry (ICC) and flow cytometry. The cell lines tested were HT-1080 (a human fibrosarcoma cell line), LNCaP (human, prostate, carcinoma), MDA-MB-231 (human, breast, adenocarcinoma), or PC3 (Human prostatic cancer cells) cells. MMP-14 is expressed on HT-1080 cells (Cancer Res. (2005) 65(23):10959-69.). MMP-14 is expressed on PC-3 cells (Oncol Rep. (2006) 15(1):199-206). LNCaP express MMP-14 (Endocrinology (2003) 144(5):1656-1663) at a relatively low level. […] MMP-14 is expressed by MDA-MB-231 cells (Int J Cancer. (2005) 114(4):544-554.).
Cells (2×10^5) were cultivated on cell culture slides in complete medium. At confluency, cells were washed with PBS and fixed with 4% paraformaldehyde for 30 minutes at room temperature. Endogenous peroxidases were blocked with 3% hydrogen peroxide for 20 minutes. Nonspecific binding sites were blocked by incubation with 10% heat inactivated human serum 10% normal rabbit serum for 30 minutes at room temperature. Cells were then incubated with biotinylated or non-biotinylated MMP-14 binding proteins at 10 μg/ml for 2 hours at room temperature. […] Binding was detected with the substrate AEC+(25 minutes at room temperature in the dark). […]

T3 sequence (P51512 120-607): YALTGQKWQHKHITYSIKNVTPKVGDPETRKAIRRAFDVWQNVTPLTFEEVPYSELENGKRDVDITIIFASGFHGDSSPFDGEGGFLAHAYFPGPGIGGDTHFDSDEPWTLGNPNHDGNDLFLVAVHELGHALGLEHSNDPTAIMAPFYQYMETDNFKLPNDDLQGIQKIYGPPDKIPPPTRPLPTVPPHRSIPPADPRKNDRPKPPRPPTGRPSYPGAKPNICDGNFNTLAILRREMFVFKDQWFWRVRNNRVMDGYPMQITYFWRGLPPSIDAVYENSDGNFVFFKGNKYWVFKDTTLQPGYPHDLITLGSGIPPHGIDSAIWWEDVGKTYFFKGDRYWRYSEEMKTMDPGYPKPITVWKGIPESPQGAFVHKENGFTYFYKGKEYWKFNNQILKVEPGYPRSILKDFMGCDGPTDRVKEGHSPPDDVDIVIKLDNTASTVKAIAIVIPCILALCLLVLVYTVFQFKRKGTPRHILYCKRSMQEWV
T2 sequence (Q9Y5R2 156-645): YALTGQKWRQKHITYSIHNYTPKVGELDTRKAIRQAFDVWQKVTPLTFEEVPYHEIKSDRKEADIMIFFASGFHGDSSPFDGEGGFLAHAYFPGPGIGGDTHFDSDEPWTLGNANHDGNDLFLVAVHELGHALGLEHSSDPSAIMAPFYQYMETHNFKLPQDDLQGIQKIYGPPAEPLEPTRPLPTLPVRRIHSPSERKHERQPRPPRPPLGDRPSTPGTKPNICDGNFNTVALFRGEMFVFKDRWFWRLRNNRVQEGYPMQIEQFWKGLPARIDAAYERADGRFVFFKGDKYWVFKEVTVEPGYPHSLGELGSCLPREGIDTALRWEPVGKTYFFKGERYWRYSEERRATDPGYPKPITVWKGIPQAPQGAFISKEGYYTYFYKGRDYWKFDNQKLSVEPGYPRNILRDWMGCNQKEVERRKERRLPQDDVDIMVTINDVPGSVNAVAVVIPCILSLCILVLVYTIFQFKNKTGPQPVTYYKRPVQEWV

| Molecule | bind to human MMP-14 (MMP-14 [1]) | MMP-16 (cross-reactivity, class symbol) (MMP-16 [3]; Fab 100 nM) | MMP-16 (cross-reactivity, class symbol) (MMP-16 [3]; IgG 100 nM) | MMP-24 (cross-reactivity, class symbol) (MMP-24 [4]) | bind to and inhibit human MMP-14 (MMP-14 [5]) | MMP-16 (cross-reactivity, class symbol) (MMP-16 [6]) | MMP-24 inhibition (MMP-24 [4]) | Cross reactivity: inhibition of MMP-24 activity (MMP-24 [2]) | Cross reactivity: inhibition of MMP-16 activity (MMP-16 [7]) | pro-MMP-2 activation by MMP-14 [8] | pro-MMP-9 expression [8] | Staining, remark on method [9] |
| --- | --- | --- | --- | --- | --- | --- | --- | --- | --- | --- | --- | --- |
| M0033-H07: human antibody (Fab, IgG) that binds and inhibits MMP-14; HC SEQ ID NO: 148, LC SEQ ID NO: 149 (antibody, V domains shown, Synthetically generated peptide) VH: EVQLLESGGGLVQPGGSLRLSCAASGFTFSVYGMVWVRQAPGKGLEWVSVISSSGGSTWYADSVKGRFTISRDNSKNTLYLQMNSLRAEDTALYYCARPFSRRYGVFDYWGQGTLVTVSS VL: QDIQMTQSPSSLSASVGDRVTITCRASQGIRNFLAWYQQKPGKVPKLLVFGASALQSGVPSRFSGSGSGTDFTLTISGLQPEDVATYYCQKYNGVPLTFGGGTKVEIK | bind to human MMP-14 | X | X | X | bind to and inhibit human MMP-14 | X | – | Y (Inhibition (Y) of activity ranged from approximately 50-80% of the reaction rate observed in the absence of antibody) | Y (Inhibition (Y) of activity ranged from approximately 50-80% of the reaction rate observed in the absence of antibody) | partly inhibited | No stimulation | – |
| M0031-F01: human antibody (Fab, IgG) that binds and inhibits MMP-14; HC SEQ ID NO: 146, LC SEQ ID NO: 147 (antibody, V domains shown, Synthetically generated peptide) VH: EVQLLESGGGLVQPGGSLRLSCAASGFTFSTYEMHWVRQAPGKGLEWVSSIYSSGGWTGYADSVKGRFTISRDNSKNTLYLQMNSLRAEDTAVYYCARSQQYYDFSSRYYGMDVWGQGTTVTVSS VL: QSELTQPPSVSGTPGQRVTISCSGTSANIGRNAVHWYQQLPGTAPKLLIHSNNRRPSGVPDRFSGSKSGTSASLAISGLQSEDEADYYCAAWENSLNAFYVFGTGTKVTVL | bind to human MMP-14 | – | – | – | bind to and inhibit human MMP-14 | – | – | – | – | – | – | (only positive in ICC) |

Second part, led by results:

| bind to human MMP-14 (MMP-14 [1]) | MMP-16 (cross-reactivity, class symbol) (MMP-16 [3]; Fab 100 nM) | MMP-16 (cross-reactivity, class symbol) (MMP-16 [3]; IgG 100 nM) | MMP-24 (cross-reactivity, class symbol) (MMP-24 [4]) | bind to and inhibit human MMP-14 (MMP-14 [5]) | MMP-16 (cross-reactivity, class symbol) (MMP-16 [6]) | MMP-24 inhibition (MMP-24 [4]) | Molecule | Cross reactivity: inhibition of MMP-24 activity (MMP-24 [2]) | Cross reactivity: inhibition of MMP-16 activity (MMP-16 [7]) | pro-MMP-2 activation by MMP-14 [8] | pro-MMP-9 expression [8] | Staining, remark on method [9] |
| --- | --- | --- | --- | --- | --- | --- | --- | --- | --- | --- | --- | --- |
| bind to human MMP-14 | X | X | – | bind to and inhibit human MMP-14 | X | Y 72% inhibition | M0037-C09: human antibody (Fab, IgG) that binds and inhibits MMP-14; HC SEQ ID NO: 150, LC SEQ ID NO: 151 (antibody, V domains shown, Synthetically generated peptide) VH: EVQLLESGGGLVQPGGSLRLSCAASGFTFSHYEMFWVRQAPGKGLEWVSSISPSGGQTHYADSVKGRFTISRDNSKNTLYLQMNSLRAEDTAVYYCATDRTYYDFWSGYGPLWYWGQGTLVTVSS VL: QDIQMTQSPLSLPVTLGESASVSCRSSQSLLHENGHNYLDWYLQKPGQSPQLLIYLGSNRASGVPDRFSGSGSGTDFTLKISRVEAEDVGVYYCMQSLKTPPTFGPGTKVEIK | Y (Inhibition (Y) of activity ranged from approximately 50-80% of the reaction rate observed in the absence of antibody) | Y (Inhibition (Y) of activity ranged from approximately 50-80% of the reaction rate observed in the absence of antibody) | – | – | – |
| bind to human MMP-14 | X | X | – | bind to and inhibit human MMP-14 | X | Y 71% inhibition | M0037-D01: human antibody (Fab, IgG) that binds and inhibits MMP-14; HC SEQ ID NO: 152, LC SEQ ID NO: 153 (antibody, V domains shown, Synthetically generated peptide) VH: EVQLLESGGGLVQPGGSLRLSCAASGFTFSMYMMIWVRQAPGKGLEWVSSIYPSGGNTMYADSVKGRFTISRDNSKNTLYLQMNSLRAEDTAVYYCATGVLRYFDWDAGSGMDVWGQGTTVTVSSLC VL: QDIQMTQSPSSLSASVGDRVTITCRASQGIRNDLGWYQQKPGKAPKRLIYVASSLQSGVPSRFSGSGSGTEFTLTISSLQPEDFATYYCLQHNSYPWTFGQGTKVEIK | Y (Inhibition (Y) of activity ranged from approximately 50-80% of the reaction rate observed in the absence of antibody) | Y (Inhibition (Y) of activity ranged from approximately 50-80% of the reaction rate observed in the absence of antibody) | – | – | – |
